According to patent publication US9163227B2, “Anti-diabetic compounds” (PFIZER INC., priority 2011, dated 2015):
Like-named read-outs stand apart in the source and are kept apart here. Marks after values point to notes of the source that are not given here. Values belong to the molecule of their own block, whether it stands above or below them.

How the values were obtained:
[1] = biological target: differentiated 3T3-L1 adipocytes (Mus musculus, UniProt P16092+Q99N32); experiment: Glucose uptake assay; type: cell-based
Protocol: Differentiated 3T3-L1 adipocytes were treated with compounds in the absence of serum for 24 hrs. Cells were then incubated with ^14C-2-deoxyglucose for 1 hr and glucose uptake into the cells was quantitated in Wallac 1450 MicroBeta (Trilux) instrument. Glucose uptake was expressed in counts per min (CPM). EC50 values as measurements of the potency of the compounds were obtained from the dose response curves in the assay.

[2] = Mouse pharmacokinetics of FGF21 antibody conjugates; type: in vivo, Swiss-Webster mice; conditions: mouse PK; antibody conjugate at the named site (protein for FGF21ΔH)
Protocol: The PK of FGF21 antibody conjugates were examined in mice after IV or SC administration. […] Antibody conjugates concentrations in serum were determined using an ELISA which captured the FGF21 portion of the antibody conjugates through a monoclonal anti-hFGF21 antibody bound to a 96-well plate. FGF21 antibody conjugates bound to the plate were detected through an anti-hFc monoclonal antibody, and concentrations were determined using a standard curve of the PK dosing solution diluted into serum-containing assay buffer. SC bioavailability was calculated as the ratio of the area-under the curve (AUC) of the SC serum concentration profile divided by the AUC of the IV serum concentration profile.

[3] = system: high-fat diet-induced obese mice; experiment: Oral glucose tolerance test in DIO mice (FGF21 conjugates); type: in vivo; conditions: day 10, 1 mg/kg QD
Protocol: (§1) The efficacy of FGF21 antibodies conjugates was evaluated in two murine obese insulin resistant models—ob/ob mice and high-fat diet-induced obese mice. For both models, male mice (6-8 weeks of age for ob/ob, 12-14 weeks of age for DIO with high-fat diet initiated at 6 weeks of age) were housed 2-4/cage and FGF21 antibody conjugates were administered by SC injection. Body weight was measured daily in the morning. Glucose tolerance was assessed by oral glucose tolerance test. Briefly, mice were fasted for 4-5 hrs in the morning of the day of testing. A basal blood sample was obtained and blood glucose levels were determined using a portable glucometer.

[4] = system: SCD1, MOGAT2, FoxA2 mRNA in liver; experiment: Hepatic gene expression (qPCR) in ob/ob mice; type: in vivo; conditions: day 6, 1 mg/kg QD
ob/ob mice = experiment: Oral glucose tolerance test in ob/ob mice (FGF21 conjugates); type: in vivo; conditions: for mean glucose AUC % during OGTT: FIG. 6B; for Mean Glucose AUC (% of vehicle control) during OGTT: FIGS. 4A/4B
Protocol: as §1

[5] = system: high-fat diet-induced obese mice; experiment: Serum lipids in DIO mice; type: in vivo; conditions: day 10, 1 mg/kg QD
[6] = biological target: Glut1 mRNA expression in differentiated 3T3-L1 adipocytes (Mus musculus, UniProt P16092+Q99N32); experiment: Glut1 Taqman assay; type: cell-based
Protocol: Differentiated 3T3-L1 adipocytes were used to measure the Glut1 mRNA expression by qPCR method. Overnight serum starved day 10-14 differentiated 3T3-L1 adipocytes were treated with compounds for 6 hrs. Total RNA was extracted from these cells, and Glut1 and GAPDH mRNA expression was measured using a Quantitect Probe RT-PCR kit and running a quantitative real time PCR reaction in a Taqman machine (Applied Biosystems®). The bioactivity of the compounds was determined by a fold change in Glut1 mRNA levels normalized by the GAPDH mRNA levels from each sample. EC═values as measurements of the potency of the compounds were obtained from the dose response curves in the assay.
3T3-L1 adipocytes were seeded at day 8 in 24-well tissue culture plates (Falcon®, Cat#353047), and incubated in DMEM complete medium (10% FBS, 2 mM L-glutamine, 1% P/S) at 37° C., 5% CO2. […] The medium was aspirated, and then RNA extracted from the cells using the RNeasy mini Kit according to the manufacturer's instructions. RNA was measured at A260 nm using the Spectramax® Plus spectrophotometer.
In Glut1 Taqman assay, differentiated 3T3-L1 adipocytes were used to measure the Glut1 mRNA expression by real-time quantitative PCR (qPCR) method described below. Overnight serum starved day 10-14 differentiated 3T3-L1 adipocytes were treated with compounds for 6 hrs. Total RNA was extracted from these cells, and Glut1 and GAPDH mRNA expression was measured using a Quantitect Probe RT-PCR kit and running a real time quantitative PCR reaction in a Taqman machine. The bioactivity of the compounds was determined by a fold change in Glut1 mRNA levels normalized by the GAPDH mRNA levels from each sample. In cAMP assay, Chinese hamster ovary (CHO) cells over-expressing human GLP-1R(CHO-hGLP-1R) were seeded in 96-well plates in serum-free medium with 300 uM IBMX. Cells were incubated with compounds at RT for 1 hr. The cAMP levels were measured using a CisBio cAMP Kit according to manufacturer's instructions. The bioactivity of the compounds was determined by the EC50 values obtained from the assay (see Table 42).

[7] = Body weight and liver weight in ob/ob mice; type: in vivo; conditions: for mean liver weight: FIG. 5B
Protocol: as §1

DIO mice = experiment: Sub-chronic and single dose efficacy of ABC-1 in DIO mice (body weight, food intake, OGTT, cholesterol, liver triglycerides); type: in vivo; conditions: Table 54: DIO mice, single SC 0.6 mg/kg
Protocol: Sub Chronic Dose Efficacy. […] All compounds were dosed SC once weekly, body weight and food intake was measured twice weekly, and an OGTT was conducted on day 17, 3 days after the 3rd weekly dose. On day 20, liver and serum samples were collected for lipid analysis.
All compounds were administered SC on day 0, body weight was measured twice weekly, and OGTT was conducted on day 7, 13, and 21. […] The sustained efficacy of the ABC-1 in vivo supports once weekly dosing of the compound.
Sub Chronic Dose Efficacy. […] All compounds were administered SC once weekly. Body weight was measured twice weekly, and an OGTT was conducted 3 days after the 3rd weekly dose.

[8] = Stability assay of FGF21ΔH-D79C; type: physicochemical
Protocol: FGF21ΔH-D790 mutant protein was produced in E. coli and purified as described above. FGF21ΔH-D790 was expressed from 1 L of culture. A 150 mg inclusion body was obtained and 85 mg purified protein was obtained, representing a 60% yield. To test the stability of FGF21ΔH-D790 as well as FGF21ΔH (SEQ ID NO:2), freshly thawed samples were kept at 4° C. over seven days, and examined for their integrity by RP-HPLC, SEC_HPLC, Ellman assay and SDS-PAGE on day 0, 3 and 7. […] PBS (pH7.4) and 20 mM Tris-HCl 50 mM NaCl (pH7.5) made no significant difference of stability of FGF21ΔH-D79C.
It is possible that the solubility of FGF21ΔH-D79C may be reduced at pH6.0. The stability of FGF21ΔH-D79C was examined upon multiple freeze/thaw cycles. The proteins were repeated to freeze (−80 C) and thaw (4° C.) 9 times.

[9] = 3T3-L1 adipocytes, 24 hrs, unconjugated protein
[10] = differentiated 3T3-L1 adipocytes, 6 hrs, protein or antibody conjugate as labelled, read-out: Glut1 Taqman assay EC50

Chain of Glut1 mRNA expression in differentiated 3T3-L1 adipocytes (P16092 22-822): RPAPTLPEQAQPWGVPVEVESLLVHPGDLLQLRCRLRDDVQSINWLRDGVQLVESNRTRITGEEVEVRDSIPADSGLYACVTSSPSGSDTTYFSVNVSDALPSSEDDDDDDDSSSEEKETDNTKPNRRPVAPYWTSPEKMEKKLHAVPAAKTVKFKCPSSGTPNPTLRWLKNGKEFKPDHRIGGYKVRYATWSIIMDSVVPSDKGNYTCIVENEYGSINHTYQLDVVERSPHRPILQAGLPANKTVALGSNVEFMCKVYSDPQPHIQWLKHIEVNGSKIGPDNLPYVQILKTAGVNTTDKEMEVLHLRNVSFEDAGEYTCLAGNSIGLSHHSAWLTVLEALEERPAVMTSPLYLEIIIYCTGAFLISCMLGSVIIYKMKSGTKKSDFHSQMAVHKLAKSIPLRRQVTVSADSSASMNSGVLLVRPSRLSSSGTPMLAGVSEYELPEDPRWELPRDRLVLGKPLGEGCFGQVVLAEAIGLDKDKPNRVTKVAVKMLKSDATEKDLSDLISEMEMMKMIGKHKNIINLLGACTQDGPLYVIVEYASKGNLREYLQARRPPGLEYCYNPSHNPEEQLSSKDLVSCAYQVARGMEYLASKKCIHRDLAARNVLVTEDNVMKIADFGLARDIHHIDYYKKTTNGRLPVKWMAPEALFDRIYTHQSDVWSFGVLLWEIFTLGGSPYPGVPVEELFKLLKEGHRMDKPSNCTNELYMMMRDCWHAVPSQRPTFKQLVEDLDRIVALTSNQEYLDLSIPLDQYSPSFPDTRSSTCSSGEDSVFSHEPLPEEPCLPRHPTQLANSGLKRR
Chain of Glut1 mRNA expression in differentiated 3T3-L1 adipocytes (Q99N32 whole entry): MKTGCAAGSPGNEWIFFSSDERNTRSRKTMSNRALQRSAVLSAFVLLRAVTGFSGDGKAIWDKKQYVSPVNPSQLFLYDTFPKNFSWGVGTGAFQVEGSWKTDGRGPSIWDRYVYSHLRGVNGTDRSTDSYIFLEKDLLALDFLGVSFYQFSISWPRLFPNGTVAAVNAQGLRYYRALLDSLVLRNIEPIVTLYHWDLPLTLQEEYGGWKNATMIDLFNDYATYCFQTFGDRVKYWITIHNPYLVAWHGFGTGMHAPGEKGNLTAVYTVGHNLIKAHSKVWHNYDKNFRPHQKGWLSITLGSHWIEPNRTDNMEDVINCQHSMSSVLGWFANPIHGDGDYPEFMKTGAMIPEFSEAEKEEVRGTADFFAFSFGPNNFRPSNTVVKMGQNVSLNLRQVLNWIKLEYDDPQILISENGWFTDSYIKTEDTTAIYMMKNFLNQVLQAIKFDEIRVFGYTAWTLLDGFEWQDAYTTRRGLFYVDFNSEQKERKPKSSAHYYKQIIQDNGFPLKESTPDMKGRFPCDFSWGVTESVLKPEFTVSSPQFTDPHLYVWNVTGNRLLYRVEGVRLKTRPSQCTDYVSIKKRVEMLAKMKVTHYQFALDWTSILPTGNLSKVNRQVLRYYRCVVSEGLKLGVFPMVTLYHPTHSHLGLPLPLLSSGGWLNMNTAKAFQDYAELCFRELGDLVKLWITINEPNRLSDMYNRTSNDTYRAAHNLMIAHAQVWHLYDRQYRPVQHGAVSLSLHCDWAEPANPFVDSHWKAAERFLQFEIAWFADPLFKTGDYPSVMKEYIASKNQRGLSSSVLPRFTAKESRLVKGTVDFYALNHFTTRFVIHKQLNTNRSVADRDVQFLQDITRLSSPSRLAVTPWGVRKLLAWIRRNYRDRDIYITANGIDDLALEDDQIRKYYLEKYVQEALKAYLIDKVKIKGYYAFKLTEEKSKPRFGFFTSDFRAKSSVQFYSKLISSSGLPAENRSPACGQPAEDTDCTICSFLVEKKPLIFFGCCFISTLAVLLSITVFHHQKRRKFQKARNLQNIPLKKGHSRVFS
Chain of differentiated 3T3-L1 adipocytes (P16092 22-822): as the sequence (P16092 22-822) above
Chain of differentiated 3T3-L1 adipocytes (Q99N32 whole entry): as the sequence (Q99N32 whole entry) above

B3: FGF21: Fibroblast growth factor (FGF) 21, wild type (protein, listed as Homo sapiens)
chain: PIPDSSPLLQFGGQVRQRYLYTDDAQQTEAHLEIREDGTVGGAADQSPESLLQLKALKPGVIQILGVKTSRFLCQRPDGALYGSLHFDPEACSFRELLLEDGYNVYQSEAHGLPLHLPGNKSPHRDPAPRGPARFLPLPGLPPALPEPPGILAPQPPDVGSSDPLSMVGPSQGRSPSYAS
Mean Body Weight Change (g) (SEM) (DIO mice; Day 7): +1.4 g
Mean Glucose AUC (% of vehicle control) (DIO mice; OGTT Day 7): 99 % of vehicle control
EC50 ([6]; Glut1 Taqman, 3T3-L1 adipocytes, 6 hrs, read-out: FGF21 (Glut1) EC50): 2.1 nM

B5: FGF21ΔH-D79C: FGF21 cysteine mutant, SEQ ID NO:12 (protein, listed as Homo sapiens)
chain: PIPDSSPLLQFGGQVRQRYLYTDDAQQTEAHLEIREDGTVGGAADQSPESLLQLKALKPGVIQILGVKTSRFLCQRPCGALYGSLHFDPEACSFRELLLEDGYNVYQSEAHGLPLHLPGNKSPHRDPAPRGPARFLPLPGLPPALPEPPGILAPQPPDVGSSDPLSMVGPSQGRSPSYAS
mean glucose AUC % during OGTT (ob/ob mice; ob/ob mice, single dose 10 mg/ml (so in the source)): 54%
stability upon freeze/thaw cycles ([8]; freeze (−80 C) and thaw (4° C.) 9 times, RP-HPLC, SEC and Ellman assay): Neither sample showed any difference between cycle 1 and cycles 9
stability (oxidation, dimerization) ([8]; neutral pH 7.4, 4° C., seven-day incubation): stable
portion oxidized ([8]; pH 6.0, 4° C., three-day incubation): more than half
EC50 [6, 10]: 2.1 nM
Cumulative body weight change, mean body weight ([7]; FIG. 6A, single dose 2 mg/kg): 2.1 g

Now from value to molecule, other results behind:

EC50 ([1]; unconjugated protein (per Examples 18-21), n in parentheses): 12 nM
activity in Glut1 Taqman assay (in words) ([6]; 3T3-L1 adipocytes): dose-dependent Glut1 induction
EC50 ([6]; 3T3-L1 adipocytes, serum-free DMEM 0.2% BSA, 6 hrs, Taqman quantitative real-time PCR, read-out: Glut1 RNA expression EC50): 3.39 nM
EC50 ([6]; unconjugated FGF21 mutant protein, n in parentheses, read-out: Glut1 Taqman unconjugated Protein EC50): 2.3 nM
B1: FGF21ΔH: FGF21 with H1 absent, L146 (SEQ ID NO:2), produced from E. coli (protein, listed as Homo sapiens)
chain: PIPDSSPLLQFGGQVRQRYLYTDDAQQTEAHLEIREDGTVGGAADQSPESLLQLKALKPGVIQILGVKTSRFLCQRPDGALYGSLHFDPEACSFRELLLEDGYNVYQSEAHGLPLHLPGNKSPHRDPAPRGPARFLPLPGLPPALPEPPGILAPQPPDVGSSDPLSMVGPSQGRSPSYAS
% SC BioAv [2]: 96%
IV T1/2 [2]: 24 min
SC T1/2 [2]: 30 min
Glucose AUC during OGTT (% of vehicle control) [3]: 75*** % of vehicle control
Mean fold change of mRNA expression, FoxA2 (SEM) [4]: 1.23 (0.08) fold
Mean fold change of mRNA expression, MOGAT2 (SEM) [4]: 0.37 (0.05)** fold
Mean fold change of mRNA expression, SCD1 (SEM) [4]: 0.95 (0.06) fold
mean glucose AUC % during OGTT (ob/ob mice; ob/ob mice, single dose, dose not given): 63%
Mean Glucose AUC (% of vehicle control) during OGTT (ob/ob mice; ob/ob mice, single SC dose 0.6 mg/kg): 103 % of vehicle control
Mean Glucose AUC (% of vehicle control) during OGTT (ob/ob mice; ob/ob mice, single SC dose 1 mg/kg): 74 % of vehicle control
Mean Glucose AUC (% of vehicle control) (ob/ob mice; ob/ob mice, OGTT on day 6, 1 mg/kg QD): 61** % of vehicle control
Glucose AUC during OGTT (% of vehicle control) (ob/ob mice; ob/ob mice, day 6, 1 mg/kg QD): 67*** % of vehicle control
GTT* (% AUC of Ctrl) (ob/ob mice; protein, 1 mg/kg Qd): 67 % AUC of Ctrl
Mean values of serum lipids NEFA (mM) (SEM) [5]: 0.40 (0.04) mM
Mean values of serum lipids TG (mg/dL) (SEM) [5]: 92 (9.6)** mg/dL
Cumulative body weight change, mean body weight ([7]; FIG. 5A, single SC dose 0.6 mg/kg): 3.2 g
Cumulative body weight change, mean body weight ([7]; FIG. 5A, single SC dose 1 mg/kg): 2.5 g
mean liver weight ([7]; single SC dose 0.6 mg/kg): 2.4 g
mean liver weight ([7]; single SC dose 1 mg/kg): 2.2 g
Cumulative body weight change, mean body weight ([7]; FIG. 6A, single dose, dose not given): 1.9 g

EC50 [1, 9]: 5.2 nM
EC50 [6, 10]: 1.3 nM
B2: FGF21ΔH-K56R-K59R-K69-K122R: FGF21 lysine mutant, SEQ ID NO:20 (protein, listed as Homo sapiens)
chain: PIPDSSPLLQFGGQVRQRYLYTDDAQQTEAHLEIREDGTVGGAADQSPESLLQLRALRPGVIQILGVKTSRFLCQRPDGALYGSLHFDPEACSFRELLLEDGYNVYQSEAHGLPLHLPGNRSPHRDPAPRGPARFLPLPGLPPALPEPPGILAPQPPDVGSSDPLSMVGPSQGRSPSYAS

EC50 [1, 9]: 1.7 nM
EC50 [6, 10]: 2.6 nM
B4: FGF21ΔH-K56-K59R-K69R-K122: FGF21 lysine mutant, SEQ ID NO:21 (protein, listed as Homo sapiens)
chain: PIPDSSPLLQFGGQVRQRYLYTDDAQQTEAHLEIREDGTVGGAADQSPESLLQLRALRPGVIQILGVRTSRFLCQRPDGALYGSLHFDPEACSFRELLLEDGYNVYQSEAHGLPLHLPGNKSPHRDPAPRGPARFLPLPGLPPALPEPPGILAPQPPDVGSSDPLSMVGPSQGRSPSYAS
